From patent US20240368250A1 (Ablynx, published 2024)
Substitutions are numbered along the chain they refer to. In names and notes the source's numbering stands.

B1: TPP-66152 (Fc fusion)
chain 1: DVQLVESGGGVVQAGGSLSISCAASGGSLSNYVLGWFRQAPGKEREFVAAINWRGDITIGPPNVEGRFTISRDNAKNTGYLQMNSLAPDDTALYYCGAGTPLNPGAYIYDWSYDYWGRGTLVTVSSDKTHTCPPCPAPEAAGGPSVFLFPPKPKDTLMISRTPEVTCVVVDVSQEDPEVQFNWYVDGVEVHNAKTKPREEQFNSTYRVVSVLTVLHQDWLNGKEYKCKVSNKGLPSSIEKTISKAKGQPREPQVYTLPPCQEEMTKNQVSLWCLVKGFYPSDIAVEWESNGQPENNYKTTPPVLDSDGSFFLYSKLTVDKSRWQEGNVFSCSVMHEALHNHYTQKSLSLSLG
chain 2: DVQLVESGGGVVQAGGSLSISCAASGGSLSNYVLGWFRQAPGKEREFVAAINWRGDITIGPPNVEGRFTISRDNAKNTGYLQMNSLAPDDTALYYCGAGTPLNPGAYIYDWSYDYWGRGTLVTVSSDKTHTCPPCPAPEAAGGPSVFLFPPKPKDTLMISRTPEVTCVVVDVSQEDPEVQFNWYVDGVEVHNAKTKPREEQFNSTYRVVSVLTVLHQDWLNGKEYKCKVSNKGLPSSIEKTISKAKGQPREPQVCTLPPSQEEMTKNQVSLSCAVKGFYPSDIAVEWESNGQPENNYKTTPPVLDSDGSFFLVSKLTVDKSRWQEGNVFSCSVMHEALHNRFTQKSLSLSLGGGGGSGGGGSGGGGSGGGGSGGGGSGGGGSGGGGSLKEAKEKAIEELKKAGITSDYYFDLINKAKTVEGVNALKDEILKA
notes: IgG4 FALA Fc knob-in-hole, C-terminal ABD via 35GS on chain 2
B2: TPP-66143 (Fc fusion)
chain 1: DVQLVESGGGVVQAGGSLSISCAASGGSLSNYVLGWFRQAPGKEREFVAAINWRGDITIGPPNVEGRFTISRDNAKNTGYLQMNSLAPDDTALYYCGAGTPLNPGAYIYDWSYDYWGRGTLVTVSSDKTHTCPPCPAPEAAGGPSVFLFPPKPKDTLMISRTPEVTCVVVDVSQEDPEVQFNWYVDGVEVHNAKTKPREEQFNSTYRVVSVLTVLHQDWLNGKEYKCKVSNKGLPSSIEKTISKAKGQPREPQVYTLPPCQEEMTKNQVSLWCLVKGFYPSDIAVEWESNGQPENNYKTTPPVLDSDGSFFLYSKLTVDKSRWQEGNVFSCSVMHEALHNHYTQKSLSLSLGGGGGSGGGGSGGGGSGGGGSGGGGSGGGGSGGGGSEVQLVESGGGVVQAGGSLSISCAASGGSLSNYVLGWFRQAPGKEREFVAAINWRGDITIGPPNVEGRFTISRDNAKNTGYLQMNSLAPDDTALYYCGAGTPLNPGAYIYDWSYDYWGRGTLVTVSSA
chain 2: B1 chain 1 with Y255C, C260S, W272S, L274A, Y313V, H341R, Y342F
notes: IgG4 FALA Fc knob-in-hole (hole chain H435R, Y436F) with three irrelevant ISVDs; control; also called control ISVD-Fc polypeptide
B3: TPP-66175 (Fc fusion)
chain 1: B2 chain 1 with M158Y, S160T, T162E
chain 2: B1 chain 1 with M158Y, S160T, T162E, Y255C, C260S, W272S, L274A, Y313V, H341R, Y342F
notes: IgG4 FALA Fc (YTE) knob-in-hole with three irrelevant ISVDs; control; also called control ISVD-Fc(YTE) polypeptide
B4: TPP-66176 (Fc fusion)
chain: B2 chain 1 with P134S, C260S, W272T
notes: Symmetrical IgG4 FALA Fc fusion without knob-in-hole mutations, four irrelevant ISVDs; control; also called symmetrical ISVD-Fc polypeptide
B5: TP019 (Fc fusion)
chain 1: DVQLVESGGGLVQPGGSLRLSCAASGLTFSTNPMYWYRQAPGKQRELVASISSRGITNYADSVKGRFTISRDNSKNTVYLQMNSLRPEDTAVYYCRLASLSSGTVYWGQGTLVTVSSDKTHTCPPCPAPEAAGGPSVFLFPPKPKDTLMASRTPEVTCVVVDVSQEDPEVQFNWYVDGVEVHNAKTKPREEQFNSTYRVVSVLTVLAQDWLNGKEYKCKVSNKGLPSSIEKTISKAKGQPREPQVYTLPPCQEEMTKNQVSLWCLVKGFYPSDIAVEWESNGQPENNYKTTPPVLDSDGSFFLYSKLTVDKSRWQEGNVFSCSVMHEALHNAYTQKSLSLSLGGGGGSGGGGSGGGGSGGGGSGGGGSGGGGSGGGGSEVQLVESGGGVVQPGGSLRLSCAASGFTFRSFGMSWVRQAPGKGPEWVSSISGSGSDTLYADSVKGRFTISRDNSKNTLYLQMNSLRPEDTALYYCTIGGSLSRSSQGTLVTVSS
chain 2: DKTHTCPPCPAPEAAGGPSVFLFPPKPKDTLMASRTPEVTCVVVDVSQEDPEVQFNWYVDGVEVHNAKTKPREEQFNSTYRVVSVLTVLAQDWLNGKEYKCKVSNKGLPSSIEKTISKAKGQPREPQVCTLPPSQEEMTKNQVSLSCAVKGFYPSDIAVEWESNGQPENNYKTTPPVLDSDGSFFLVSKLTVDKSRWQEGNVFSCSVMHEALHNAYTQKSLSLSLG
B6: TP016 (Fc fusion)
chain 1: DVQLVESGGGLVQPGGSLRLSCAASGLTFSTNPMYWYRQAPGKQRELVASISSRGITNYADSVKGRFTISRDNSKNTVYLQMNSLRPEDTAVYYCRLASLSSGTVYWGQGTLVTVSSDKTHTCPPCPAPEAAGGPSVFLFPPKPKDTLMASRTPEVTCVVVDVSQEDPEVQFNWYVDGVEVHNAKTKPREEQFNSTYRVVSVLTVLAQDWLNGKEYKCKVSNKGLPSSIEKTISKAKGQPREPQVYTLPPCQEEMTKNQVSLWCLVKGFYPSDIAVEWESNGQPENNYKTTPPVLDSDGSFFLYSKLTVDKSRWQEGNVFSCSVMHEALHNAYTQKSLSLSLG
chain 2: DVQLVESGGGVVQPGGSLRLSCAASGFTFRSFGMSWVRQAPGKGPEWVSSISGSGSDTLYADSVKGRFTISRDNSKNTLYLQMNSLRPEDTALYYCTIGGSLSRSSQGTLVTVSSDKTHTCPPCPAPEAAGGPSVFLFPPKPKDTLMASRTPEVTCVVVDVSQEDPEVQFNWYVDGVEVHNAKTKPREEQFNSTYRVVSVLTVLAQDWLNGKEYKCKVSNKGLPSSIEKTISKAKGQPREPQVCTLPPSQEEMTKNQVSLSCAVKGFYPSDIAVEWESNGQPENNYKTTPPVLDSDGSFFLVSKLTVDKSRWQEGNVFSCSVMHEALHNAYTQKSLSLSLG

Experiments:
[1] = molecular target: T1, Human serum albumin (HSA; Sigma-Aldrich Cat No. A8763) (human, UniProt P02768 25-609); experiment: SPR Biacore 8K+, HSA on C1 chip, pH 7.4, 1:1 fit
[2] = molecular target: T2, Mouse serum albumin (MSA; Albumin Bioscience Cat No. 2601) (mouse, UniProt P07724 25-608); experiment: SPR Biacore 8K+, MSA on C1 chip, pH 7.4, 1:1 fit (off-rate only)
[3] = molecular target: T3, Human FcRn (biotinylated human FcRn) (human, UniProt P61769 21-119); experiment: SPR Biacore 8K+, biotinylated hFcRn on SA chip (~500-600 RU), pH 6.0, bivalent analyte fit (ka1)
T3 construct: Biotinylated human FcRn captured on a Series S Sensor Chip SA; also called human neonatal Fc receptor; hFcRn

[4] = molecular target: T3, Human FcRn (biotinylated human FcRn); experiment: SPR Biacore 8K+, biotinylated hFcRn on SA chip (~500-600 RU), pH 6.0, bivalent analyte fit (kd1)
[5] = molecular target: T3, Human FcRn (biotinylated human FcRn); experiment: SPR Biacore 8K+, biotinylated hFcRn on SA chip (~500-600 RU), pH 6.0, bivalent analyte fit (KD1)
[6] = molecular target: T3, Human FcRn (biotinylated human FcRn); experiment: SPR Biacore 8K+, biotinylated hFcRn on SA chip (~500-600 RU), pH 6.0, bivalent analyte fit;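 note: analytes were Fc proteins binding to biotinylated human FcRn captured on a Series S streptavidin sensor chip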
[7] = molecular target: T1, Human serum albumin (HSA; Sigma-Aldrich …); experiment: SPR Biacore 8K+, HSA on CM5 chip, pH 7.4, 1:1 fit
[8] = molecular target: T1, Human serum albumin (HSA; Sigma-Aldrich …); experiment: SPR Biacore 8K+, HSA on CM5 chip, pH 6.0, 1:1 fit
[9] = molecular target: T2, Mouse serum albumin (MSA; Albumin …); experiment: SPR Biacore 8K+, MSA on CM5 chip, pH 7.4, 1:1 fit
[10] = molecular target: T2, Mouse serum albumin (MSA; Albumin …); experiment: SPR Biacore 8K+, MSA on CM5 chip, pH 6.0, 1:1 fit

Binder	kon [3] [M⁻¹ s⁻¹]	koff [4] [s⁻¹]	Kd [5] [nM]	KD2 [6] [M]	ka2 [6]	kd2 [6] [s⁻¹]	Kd [7] [nM]	koff [7] [s⁻¹]	kon [7] [M⁻¹ s⁻¹]	Kd [8] [nM]	koff [8] [s⁻¹]	kon [8] [M⁻¹ s⁻¹]	Kd [9] [nM]	koff [9] [s⁻¹]	kon [9] [M⁻¹ s⁻¹]	Kd [10] [nM]	koff [10] [s⁻¹]	kon [10] [M⁻¹ s⁻¹]	further results
B1	57500	0.107	1860	–	–	–	–	–	–	–	–	–	–	–	–	–	–	–	Kd [1]: 2.24 nM; koff [1]: 0.000201 s⁻¹; kon [1]: 89500 M⁻¹ s⁻¹; koff [2]: 0.00111 s⁻¹
B2	82800	0.0779	941	4.24	3.22e-05 1/RUs	0.000136	–	–	–	–	–	–	–	–	–	–	–	–	–
B3	93300	0.0167	179	3.98	0.0232 1/RUs	0.0922	–	–	–	–	–	–	–	–	–	–	–	–	–
B4	62900	0.0794	1260	4.53	3.79e-05 1/RUs	0.000172	–	–	–	–	–	–	–	–	–	–	–	–	–
B5	–	–	–	–	–	–	51	0.0019	36000	26	0.0016	61000	50	0.5	1e+07	50	0.5	1e+07	–
B6	–	–	–	–	–	–	9.3	0.00057	61000	3.7	0.0004	110000	35	0.0042	120000	22	0.0038	170000	–
